From article PMC1557813 (Nucleic Acids Research, 2006) come the findings set out here.

The assay concerns the target T1, GST–PAH1 (amino acids 34–108) (mouse (as mSin3b), UniProt Q62141 34-108).
T1 sequence (looked up): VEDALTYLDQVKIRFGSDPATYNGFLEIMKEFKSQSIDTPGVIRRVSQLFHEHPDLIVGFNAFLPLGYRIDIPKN
The assay is described as follows: pull-down.

B1: protG-P1-8 (P1-8 fused to the GB1 domain of streptococcal protein G) (peptide)
chain: SAAMGSAEFEALVALLFLSEE
For B1, the binding result is recorded as “binds”.

B2: protG-P1-8 Leu12 to alanine (peptide)
chain: SAAMGSAEFEAAVALLFLSEE
In the case of B2, the binding result is “binds”.

B3: protG-P1-8 Val13 to alanine (peptide)
chain: SAAMGSAEFEALAALLFLSEE
For B3, the binding result is given as “binds”.

B4: protG-P1-8 Phe9 to alanine (peptide)
chain: SAAMGSAEAEALVALLFLSEE
As for B4, the binding result is “binds”.

B5: protG-P1-1 (P1-1 fused to the GB1 domain of streptococcal protein G) (peptide)
chain: EGDWLFFVLLVGLL
As to B5, the binding result is listed as “binds”.
